Tests used:
ParB [1] = target: T1, ParB (Pseudomonas aeruginosa, UniProt Q9HT12 1-290); assay: EMSA; highest in affinity hierarchy; 10 mM Tris-HCl pH 7.5, 0.5 mM DTT, 50 mM KCl, 1 mM MgCl2, 20 ul, 6 pmol labelled DNA, 18 pmol nonspecific competitor (titrations) or 240 pmol ParB plus 18-180 pmol unlabelled parS2 (dissociation), 15 min 37 C; 5% PAGE in 0.5x TBE; conditions: protein: recombinant; tags: His6 (pET28-derived pKLB28); chain copies: 2; label: 5'-Cy3 on strand 1; 5' overhang 4 nt at both ends
T1 sequence: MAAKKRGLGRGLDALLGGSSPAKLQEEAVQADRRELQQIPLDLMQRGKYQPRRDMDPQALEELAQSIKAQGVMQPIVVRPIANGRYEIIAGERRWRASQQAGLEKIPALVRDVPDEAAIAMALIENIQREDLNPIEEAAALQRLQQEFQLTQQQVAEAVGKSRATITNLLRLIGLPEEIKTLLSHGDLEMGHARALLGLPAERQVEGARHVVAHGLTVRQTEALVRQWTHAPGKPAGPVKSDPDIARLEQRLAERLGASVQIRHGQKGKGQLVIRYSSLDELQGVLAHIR

ParB [2] = target: T1, ParB; assay: EMSA; second in hierarchy; competed by unlabelled parS2; 10 mM Tris-HCl pH 7.5, 0.5 mM DTT, 50 mM KCl, 1 mM MgCl2, 20 ul, 6 pmol labelled DNA, 18 pmol nonspecific competitor (titrations) or 240 pmol ParB plus 18-180 pmol unlabelled parS2 (dissociation), 15 min 37 C; 5% PAGE in 0.5x TBE; conditions: protein: recombinant; tags: His6 (pET28-derived pKLB28); chain copies: 2; label: 5'-Cy3 on strand 1; 5' overhang 4 nt at both ends
ParB [3] = target: T1, ParB; assay: EMSA; no significant difference from wt parS5; unlabelled parS2 competitor; 10 mM Tris-HCl pH 7.5, 0.5 mM DTT, 50 mM KCl, 1 mM MgCl2, 20 ul, 6 pmol labelled DNA, 18 pmol nonspecific competitor (titrations) or 240 pmol ParB plus 18-180 pmol unlabelled parS2 (dissociation), 15 min 37 C; 5% PAGE in 0.5x TBE; conditions: protein: recombinant; tags: His6 (pET28-derived pKLB28); chain copies: 2; label: 5'-Cy5 on strand 1; 5' overhang 4 nt at both ends
ParB [4] = target: T1, ParB; assay: EMSA; no specific complex; nonspecific smearing at ParB >5 uM; 10 mM Tris-HCl pH 7.5, 0.5 mM DTT, 50 mM KCl, 1 mM MgCl2, 20 ul, 6 pmol labelled DNA, 18 pmol nonspecific competitor (titrations) or 240 pmol ParB plus 18-180 pmol unlabelled parS2 (dissociation), 15 min 37 C; 5% PAGE in 0.5x TBE; conditions: protein: recombinant; tags: His6 (pET28-derived pKLB28); chain copies: 2; label: 5'-Cy5 on strand 1; blunt
ParB [5] = target: T1, ParB; assay: EMSA; hierarchy: below parS1/4, equal to parS8, parS9; 10 mM Tris-HCl pH 7.5, 0.5 mM DTT, 50 mM KCl, 1 mM MgCl2, 20 ul, 6 pmol labelled DNA, 18 pmol nonspecific competitor (titrations) or 240 pmol ParB plus 18-180 pmol unlabelled parS2 (dissociation), 15 min 37 C; 5% PAGE in 0.5x TBE; conditions: protein: recombinant; tags: His6 (pET28-derived pKLB28); chain copies: 2; label: 5'-Cy3 on strand 1; 5' overhang 4 nt at both ends; one mismatch as printed
ParB [6] = target: T1, ParB; assay: EMSA; hierarchy: below parS1/4, equal to parS7, parS9; 10 mM Tris-HCl pH 7.5, 0.5 mM DTT, 50 mM KCl, 1 mM MgCl2, 20 ul, 6 pmol labelled DNA, 18 pmol nonspecific competitor (titrations) or 240 pmol ParB plus 18-180 pmol unlabelled parS2 (dissociation), 15 min 37 C; 5% PAGE in 0.5x TBE; conditions: protein: recombinant; tags: His6 (pET28-derived pKLB28); chain copies: 2; label: 5'-Cy3 on strand 1; 5' overhang 4 nt at both ends
ParB [7] = target: T1, ParB; assay: EMSA; hierarchy: below parS1/4, equal to parS7, parS8; 10 mM Tris-HCl pH 7.5, 0.5 mM DTT, 50 mM KCl, 1 mM MgCl2, 20 ul, 6 pmol labelled DNA, 18 pmol nonspecific competitor (titrations) or 240 pmol ParB plus 18-180 pmol unlabelled parS2 (dissociation), 15 min 37 C; 5% PAGE in 0.5x TBE; conditions: protein: recombinant; tags: His6 (pET28-derived pKLB28); chain copies: 2; label: 5'-Cy3 on strand 1; 5' overhang 4 nt at both ends
ParB [8] = target: T1, ParB; assay: EMSA; hierarchy: below parS7-9, above parS6; 10 mM Tris-HCl pH 7.5, 0.5 mM DTT, 50 mM KCl, 1 mM MgCl2, 20 ul, 6 pmol labelled DNA, 18 pmol nonspecific competitor (titrations) or 240 pmol ParB plus 18-180 pmol unlabelled parS2 (dissociation), 15 min 37 C; 5% PAGE in 0.5x TBE; conditions: protein: recombinant; tags: His6 (pET28-derived pKLB28); chain copies: 2; label: 5'-Cy3 on strand 1; 5' overhang 4 nt at both ends
ParB [9] = target: T1, ParB; assay: EMSA; hierarchy: below parS10, above parS5; 10 mM Tris-HCl pH 7.5, 0.5 mM DTT, 50 mM KCl, 1 mM MgCl2, 20 ul, 6 pmol labelled DNA, 18 pmol nonspecific competitor (titrations) or 240 pmol ParB plus 18-180 pmol unlabelled parS2 (dissociation), 15 min 37 C; 5% PAGE in 0.5x TBE; conditions: protein: recombinant; tags: His6 (pET28-derived pKLB28); chain copies: 2; label: 5'-Cy3 on strand 1; 5' overhang 4 nt at both ends
ParB [10] = target: T1, ParB; assay: EMSA; lowest of the wt sites in hierarchy; 10 mM Tris-HCl pH 7.5, 0.5 mM DTT, 50 mM KCl, 1 mM MgCl2, 20 ul, 6 pmol labelled DNA, 18 pmol nonspecific competitor (titrations) or 240 pmol ParB plus 18-180 pmol unlabelled parS2 (dissociation), 15 min 37 C; 5% PAGE in 0.5x TBE; conditions: protein: recombinant; tags: His6 (pET28-derived pKLB28); chain copies: 2; label: 5'-Cy3 on strand 1; 5' overhang 4 nt at both ends

B1: parS2/parS3 (dsDNA)
DNA 1: AATTCAAGCTTTGTTCCACGTGGAACAG
DNA 2: TCGACTGTTCCACGTGGAACAAAGCTTG
binding result (ParB [1]): binds

B2: parS1/parS4 (dsDNA)
DNA 1: AATTCAAGCTTTGTTCCACGTGGAACCG
DNA 2: TCGACGGTTCCACGTGGAACAAAGCTTG
binding result (ParB [2]): binds

B3: parS5* (dsDNA)
DNA 1: AATTCAAGCTTTATTGTATATGGAGCAG
DNA 2: TCGACTGCTCCATATACAATAAAGCTTG
binding result (ParB [3]): binds

B4: nonspecific control (dsDNA)
DNA 1: GATAGCTCTTTGCCATTAAC
DNA 2: GTTAATGGCAAAGAGCTATC
binding result (ParB [4]): no binding

B5: parS7 (dsDNA)
DNA 1: AATTCAAGCTTTGTTCCACGAGGAACCG
DNA 2: TCGACCGTTCCTCGTGGAACAAAGCTTG
binding result (ParB [5]): binds

B6: parS8 (dsDNA)
DNA 1: AATTCAAGCTTTGTTCCACGAGGCACAG
DNA 2: TCGACTGTGCCTCGTGGAACAAAGCTTG
binding result (ParB [6]): binds

B7: parS9 (dsDNA)
DNA 1: AATTCAAGCTTTGTTCCACGAGGAAGAG
DNA 2: TCGACTCTTCCTCGTGGAACAAAGCTTG
binding result (ParB [7]): binds

B8: parS10 (dsDNA)
DNA 1: AATTCAAGCTTTGTTCCACAGGGAACAG
DNA 2: TCGACTGTTCCCTGTGGAACAAAGCTTG
binding result (ParB [8]): binds

B9: parS6 (dsDNA)
DNA 1: AATTCAAGCTTCGTTCCACGTGGAAGAG
DNA 2: TCGACTCTTCCACGTGGAACGAAGCTTG
binding result (ParB [9]): binds

B10: parS5 (dsDNA)
DNA 1: AATTCAAGCTTTGTTCTACATGGAACAG
DNA 2: TCGACTGTTCCATGTAGAACAAAGCTTG
binding result (ParB [10]): binds
